These results are taken from the supplement of paper PMC12042874.

The data set in a line: amyloid nucleation score (Sup35N fusion, yeast selection) (log enrichment); library NNK2; higher = more nucleation; inactive = no reads after selection. In outline:
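In psi-negative yeast, Sup35N fusions carrying peptides of 20 random codons were induced with 100 μM copper sulfate for 24 hours. The cells then grew 7 days at 30°C on medium lacking adenine and uracil, and plasmid inserts from input and output were Illumina-sequenced, excluding sequences with under 100 input reads. Nucleation score is the DiMSum log enrichment of output over input reads, centred on the mode score of non-aggregating sequences.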

± gives the uncertainty stated by the source.

With VLGNSLELVGNRLDSI, the amyloid nucleation score is 4.11 ± 0.066.
The substance VRRCIVRI gave an amyloid nucleation score of 0.267 ± 0.4.
In turn, IGVIKGFYWHK displayed an amyloid nucleation score of -0.343 ± 1.1.
Then NQTNSGQRVY, with -0.208 ± 1.1; and SMSPGVFLISGWPMVENVVF, with “inactive”; and LLLINFSYNALTKVRSEEYL, with 3.86 ± 0.084.
Then RVTKSVKLGPEFMLNHGRLT, with 3.33 ± 0.061; and YVMSVRSAIRPIGSCVKKEY, with 0.101 ± 0.76.
GFFLSNFSVFYKCIRSVVDT came in with an amyloid nucleation score of -1.81 ± 0.62.
Then NCRRMFGYNHCSHLCPLRVW, with -0.653 ± 1.1.
Then SMLDILS, with -1.79 ± 0.62; and NIDSWVKGFVKY, with -0.558 ± 1.
To PLDLYSVSIISLFEYIGVVR belongs -0.948 ± 1; to RSQSSYRIVQWIMYTCDNVL, “inactive”.
As to GFSVRVGVMTFDSFDWRVLF, the amyloid nucleation score worked out at 1.72 ± 0.15.
To DFCRQLWTKNKNVLRFICNS belongs -0.342 ± 1.
In the case of RLVNASEGGMHWANSSEFYA, the amyloid nucleation score is 0.643 ± 0.24.
To FHVTVRFRSYCIFDPRGCVI belongs 1.81 ± 0.21; to IISSYSATEARTMFIKLHCL, -0.606 ± 0.54; to CGMCKF, -0.487 ± 0.29.
Then MFIWPCYFHNIRVGQLFGFG, with 0.091 ± 0.63; and ILYVCDTRELSGWGGRCYAW, with 1.73 ± 0.56; and RWFFEQDIIYLSRVRGDFRV, with “inactive”.
To CIRMLSVIYHCPL belongs 4.85 ± 0.07; to LSNRSYFTSTAWYEKNRPA, -0.293 ± 0.26; to ALCYWRNSPSVGRRQWRRQC, 6.654 ± 0.057.
In turn, PFDTTCLYRYYSNFYPS yielded an amyloid nucleation score of 1.73 ± 0.19.
Then FLARLI, with 0.45 ± 0.74.
Then KYFTVTDVSLY, with 5.911 ± 0.028; and ISPLHNSLKALRFGPPYSTL, with -0.377 ± 0.4; and WMGNLLGVRFMIKMIGYRAL, with “inactive”.
Then MSGYVVFDMALKTRELMPAS, with 1.87 ± 0.48.
In the case of YWFHDCMRCCGNKILLLPDI, the amyloid nucleation score is -0.712 ± 1.1.
Then HFTSRLKIRSTIVAVVNVSS, with 3.16 ± 0.078; and SCGMFESPAVYGYSARLSRL, with “inactive”.
Then KEGFPMIIDYEIGFTDLSGG, with -1.43 ± 0.75.
Then RYISYITSVSESRQGNRPYG, with -0.446 ± 0.28; and ESLEADN, with “inactive”.
GAYYSQ gave an amyloid nucleation score of -0.316 ± 0.46.
Then RCEVAMDGVESVKSFPA, with 0.697 ± 0.35; and MYKIF, with “inactive”; and QKYLYQGCHLI, with -1.24 ± 0.32.
Then WNFKGRLLRMQLTRAHVNHT, with “inactive”; and MYNQC, with 0.271 ± 0.44; and TFDWKTSKPYANKPLRFETS, with 0.284 ± 0.34.
To PRMGFNDPARLGG belongs -1.34 ± 0.76.
Regarding LVSADVCLGLMPSKSLGGRV, the amyloid nucleation score was 1.07 ± 0.54.
In turn, TLIGNDDLVVTCTYSYDPTL yielded an amyloid nucleation score of -0.145 ± 1.1.
To NLEPKNCCCCETFFISYIPT belongs 1.09 ± 0.35; to QDMLWVPCNSGYRTQ, 0.627 ± 0.47.
On to VKFFSSVLSNDGFRSLGVCL, for which the amyloid nucleation score amounted to 0.13 ± 1.1.
Then MPHPLLLSFEENLIDCLYDH, with -0.693 ± 0.64; and YFLHCQPLVWDTLRVRQMVR, with -0.062 ± 0.35.
To ARRCSFWYIISVQRF belongs “inactive”; to SLSLSSVERNGAANSAREFG, 0.647 ± 0.31.
Then CRRCTIGLISDRGVLAAEES, with -0.403 ± 0.63; and KWGVAFNCSYNGVDNVNFWC, with 6.807 ± 0.058; and CLNWRSLSS, with 3.34 ± 0.067.
WITVVRLIYLAFFQTGST displayed an amyloid nucleation score of -0.867 ± 0.63.
To VPYGRAGFVTTYAVCCYNCK belongs -0.47 ± 1.1; to NSLCLLNRQ, 0.241 ± 0.54; to FMLTLQKTLFFCNDRVC, 5.25 ± 0.064.
To FYKWGVVIFDGNCIEKWDIL belongs -1.52 ± 0.75.
APADH displayed an amyloid nucleation score of 2.52 ± 0.15.
To CTFPALSLPGPVSTQQSSGQ belongs 3.47 ± 0.06; to VFKLCTSPFSCLIGRMGGTD, 9.172 ± 0.063.
Then FEMIC, with 0.783 ± 0.57; and SMGVGTAVTCRTLVVLDGSC, with 0.741 ± 0.37; and AALCGLKFVRERKWRKSILS, with 0.345 ± 0.65.
To CYRNAT belongs 0.475 ± 0.2; to FGCIFYPMYLS, 5.32 ± 0.088.
As for YYGVKSAM, the amyloid nucleation score came out at 0.074 ± 0.49.
To FVSRIGIFLS belongs -1.28 ± 0.78; to HEYQFSYDFKFLFGSQIMYM, “inactive”; to IFYIVGYFAHLMMWNTRRDG, “inactive”.
The substance LVKVTLRVMISV yielded an amyloid nucleation score of 0.099 ± 0.2.
Then YYQGRPWSSVLSFYCFHSYS, with “inactive”; and NHSVYVYMLMALTTWGVLSS, with -0.403 ± 0.79.
Then FVNYSRGRFQVGLVMFRVRP, with 0.427 ± 0.74; and QAFVNFNIIYDV, with 5.959 ± 0.053.
WGNHSYLTVYRFFIRNWDVI displayed an amyloid nucleation score of -0.81 ± 0.55.
To EITSKMSSWGSLTASALTIS belongs -0.104 ± 0.48; to FYMYFPNRAYWVGLGLTPML, -0.365 ± 0.61; to CHKVWSKEDWATVWSVGGLV, -0.02 ± 1.1.
Then RGLCVGSSARFCVY, with 0.691 ± 0.6.
To VTDWACGMILIYVLRKILVM belongs 0.461 ± 0.47; to DWRSLRLGVK, -0.065 ± 0.32.
In turn, YMHSICLFIVDNKIDYLRGY yielded an amyloid nucleation score of 0.541 ± 0.74.
To TCTQPFLVGCVERSLYES belongs -0.317 ± 0.28.
To SFNGVILRNDVITRVLFDRQ belongs 6.7 ± 0.051; to LFVLK, -0.843 ± 0.21.
To IVCQDFYTAWEYYTYAHR belongs 3.07 ± 0.048; to YARANYYALLWPRLTFPMIL, -1.41 ± 0.78; to CTLLTNITLFRGLHGTKFFC, 2.43 ± 0.14.
FNTSFNSVFPCSYRRFTGDI: the amyloid nucleation score amounted to 1.72 ± 0.097.
NMQFSSTFRYSGYYYLVEHW showed an amyloid nucleation score of 1.59 ± 0.13.
To WHNDSTG belongs 0.619 ± 0.22.
Then FYSTVGSSFWTARQGISLQI, with 1.05 ± 0.25; and VGLISERLVSMSTVA, with 0.4 ± 0.56; and HPWSFLKVGVQFVGFWDSPY, with 0.366 ± 0.19.
Then FVSRRIVAIPLWLLVSEITS, with -0.201 ± 0.38.
Take VHTMY: the amyloid nucleation score was -0.299 ± 1.1.
Then MEYPRLRSHNTAIFTLFQRP, with 5.38 ± 0.055.
Then PRRMNRGYQNDYFISTVFSV, with -0.711 ± 0.64; and VFDVHIYRPSVP, with 5.96 ± 0.069.
With HSVLMAGSPTILRHRYRFKG, the amyloid nucleation score is -0.723 ± 0.44.
Then TIYVRQ, with -1.4 ± 1.1; and VNLSDDCELVYRSCEVLLNY, with -1.34 ± 1.1.
Take LAGYSHTI: the amyloid nucleation score was 0.406 ± 0.46.
To KVGVVNYTTSLRFAGRDSSL belongs 4.52 ± 0.091; to FVFRWNSVPIRLRVEQGCVF, 0.532 ± 0.47; to NPDLNKT, 1.36 ± 0.39.
Then FLVYMIVVV, with -0.702 ± 1.1; and FCNDRTTVGD, with -0.538 ± 0.39.
Then PCVSMSVYILQLGPLGAWSR, with 7.454 ± 0.054; and MQNANLIQTFEGYIYPMDIQ, with 0.433 ± 0.74; and WESCWIHLFHLSIHLTTNFY, with 2.08 ± 0.088.
Turning to HIVEIGALYRAIYLKVKWRQ, the amyloid nucleation score is 2.62 ± 0.21.
On to SSFIQGCQDSDTNFGGTSSC, for which the amyloid nucleation score result was “inactive”.
Then WGHANFAEVWNDP, with 0.385 ± 0.6.
Then SVVWFNTMYLYDWLHKPICI, with “inactive”; and FWYRAYDLIPVLTAGWRYLF, with 0.001 ± 0.76; and DLDFIKDLTAKLY, with -0.183 ± 1.
LSVAFRVW had an amyloid nucleation score of -0.55 ± 0.49.
To NLDDYYDNILFTAMR belongs 0.201 ± 0.54.
As for NLCDYSSSRLIASRNMHYTA, the amyloid nucleation score stood at 4 ± 0.07.
In turn, WSGVSGNLT displayed an amyloid nucleation score of 0.145 ± 0.4.
Then LLGCYNYSFRWDSRASASR, with -0.207 ± 0.55.
To HPSFLRIWDYIRSKFNSVHR belongs “inactive”; to WYIRPSKTCEVSFGYPRRSW, -0.891 ± 1.1; to YWGNYLRSFIYVVTSWSHVF, “inactive”.
To CWFYVMGLWHVLLLCWS belongs “inactive”; to GFRTFRRGREWSLE, 0.714 ± 0.34; to FGILGCMYVNPNMNMIYWLW, 1.56 ± 0.24.
For LRFLVGVHAAYYIHTS, the amyloid nucleation score is -0.649 ± 0.79.
Consider FLYIRRAVGKWFLVFVTLQQ, for which the amyloid nucleation score stood at 0.135 ± 0.48.
Then SRNNCRCD, with -1.17 ± 1.1; and TIGRSFYELPFYGAILFWMR, with 1.45 ± 0.21; and GMNWGWRFVNIFY, with 5.848 ± 0.031.
To WHQLKSTPLHFYSINTASFN belongs 0.123 ± 0.6.
